Data as given in US20230192835A1 (PROMETHEUS BIOSCIENCES, published 2023).

T1: membrane-associated human TL1A on transfected HEK293 cells (human, UniProt O95150 1-251)
T1 construct: whole, on cells
T1 sequence (looked up): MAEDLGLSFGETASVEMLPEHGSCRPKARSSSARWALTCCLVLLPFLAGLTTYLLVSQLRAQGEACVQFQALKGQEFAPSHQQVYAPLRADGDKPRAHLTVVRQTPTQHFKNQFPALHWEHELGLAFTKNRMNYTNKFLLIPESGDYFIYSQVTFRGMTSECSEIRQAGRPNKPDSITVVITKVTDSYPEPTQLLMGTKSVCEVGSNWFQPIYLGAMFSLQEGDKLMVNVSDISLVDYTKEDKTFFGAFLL


Experiments:
[1] = biological target: T1, membrane-associated human TL1A on …; assay: flow cytometry, HEK293 cells expressing human TL1A, Fab
Method: All the Fab variants were tested for binding to membrane-associated human TL1A. For these studies a HEK293 cell line that had been transfected with human TL1A was used. The 293 cells expressing membrane bound human TL1A were maintained in DMEM containing L-glutamine, glucose, sodium pyruvate, and phenol red (ThermoFisher cat #11995-065) plus 10% fetal bovine serum, 1× penicillin-streptomycin (Fisher cat #15140122) and 2 μg/ml puromycin (Gibco cat #A11138-03) in a 37° C. incubator with 5% CO₂. Three days prior to the assay, a T-75 flask was seeded with 3×10⁶ cells so that the flask was 90-95% confluent on the day of the assay. The media was aspirated and the cell monolayer was gently washed with 5 ml PBS. Adherent cells were removed by repeatedly pipetting 10 ml ice cold 1% BSA/PBS against the monolayer. The cells were counted and 5×10⁵ were aliquoted for each sample to be analyzed. The cells were collected by centrifuging at 300×g at 4° C. for 5 minutes and the wash was discarded. The cells were resuspended in 100 μl Fab or IgG diluted in 1% BSA/PBS and placed on ice for 30 min. Next, the cells were washed with 1 ml 1% BSA/PBS and collected by centrifuging at 300×g at 4° C. for 5 min. The wash was discarded and 100 μl secondary goat F(ab′)2 anti-human kappa FITC (Southern Biotech cat #2062-02) or goat F(ab′)2 anti-human IgG PE (Southern Biotech cat #2043-09) conjugate, diluted 1:200 in BSA/PBS was added. Cells were placed on ice for 30 min. Finally, the cells were washed with 1 ml BSA/PBS, collected by centrifuging at 300×g at 4° C. for 5 min. The wash was removed and the cells were resuspended in 500 μl 1% BSA/PBS. One drop of Sytox AADvanced ReadyFlow Reagent (ThermoFisher cat #R37173) was added per sample and the samples were analyzed on the Attune NxT Flow Cytometer (ThermoFisher).

[2] = biological target: T1, membrane-associated human TL1A on …; assay: flow cytometry, HEK293 cells expressing human TL1A, IgG

Binder | binding result [1] | binding result [2]
Clone 2 Fab (Fab, V domains shown, Fab) VH: QVQLVQSGAEVKKPGASVKVSCKASGFDIQDTYMHWVRQAPGQGLEWMGRIEPASGHIKYSPKFQGRVTMTRDTSTSTVYMELSSLRSEDTAVYYCARSGGLPDWWGQGTTVTVSS VL: EIVLTQSPGTLSLSPGERATLSCRASSSVSYMYWYQQKPGQAPRLLIYATSNLASGIPDRFSGSGSGTDFTLTISRLEPEDFAVYYCQQWEGNPRTFGGGTKLEIK | binds | –
Clone 47 Fab (Fab, V domains shown, Fab) VH: QVQLVQSGAEVKKPGASVKVSCKASGFDIQDTYMHWVRQAPGQGLEWMGRIEPASGHVKYDPKFQTRVTMTRDTSTSTVYMELSSLRSEDTAVYYCARSGGLPDWWGQGTTVTVSS VL: EIVLTQSPGTLSLSPGERATLSCRASSSVSYMYWYQQKPGQAPRLLIYATSNLASGIPDRFSGSGSGTDFTLTISRLEPEDFAVYYCQQWEGNPRTFGGGTKLEIK | binds | –
Clone 46 Fab (Fab, V domains shown, Fab) VH: QVQLVQSGAEVKKPGASVKVSCKASGFDIQDTYMHWVRQAPGQGLEWMGRIEPASGHVKYSPKFQVRVTMTRDTSTSTVYMELSSLRSEDTAVYYCARSGGLPDWWGQGTTVTVSS VL: EIVLTQSPGTLSLSPGERATLSCRASSSVSYMYWYQQKPGQAPRLLIYATSNLASGIPDRFSGSGSGTDFTLTISRLEPEDFAVYYCQQWEGNPRTFGGGTKLEIK | binds | –
Clone 17L Fab (Fab, V domains shown, Fab) VH: QVQLVQSGAEVKKPGASVKVSCKASGFDIQDTYMHWVRQAPGQGLEWMGRIDPASGHLKYDPKFQVRVTMTRDTSTSTVYMELSSLRSEDTAVYYCARSGGLPDMWGQGTTVTVSS VL: EIVLTQSPGTLSLSPGERATLSCRASSSVSYMYWYQQKPGQAPRLLIYATSNLASGIPDRFSGSGSGTDFTLTISRLEPEDFAVYYCQQWQGNPRTFGGGTKLEIK | binds | –

Results, then the binder that gave them:

binding result [1] | binding result [2] | Binder
binds | – | Clone 52 Fab (Fab, V domains shown, Fab) VH: QVQLVQSGAEVKKPGASVKVSCKASGFDIQDTYMHWVRQAPGQGLEWMGRIEPASGHIKYSPKFQGRVTMTRDTSTSTVYMELSSLRSEDTAVYYCARSGGLPDWWGQGTTVTVSS VL: EIVLTQSPGTLSLSPGERATLSCGASSSVSYMYWYQQKPGQAPRLLIYATSNLASGIPDRFSGSGSGTDFTLTISRLEPEDFAVYYCQQWEGNPRTFGGGTKLEIK
– | binds | Clone 17L IgG1 (modified) (antibody, also called 17L G1) heavy: not shown light: EIVLTQSPGTLSLSPGERATLSCRASSSVSYMYWYQQKPGQAPRLLIYATSNLASGIPDRFSGSGSGTDFTLTISRLEPEDFAVYYCQQWQGNPRTFGGGTKLEIKRTVAAPSVFIFPPSDEQLKSGTASVVCLLNNFYPREAKVQWKVDNALQSGNSQESVTEQDSKDSTYSLSSTLTLSKADYEKHKVYACEVTHQGLSSPVTKSFNRGEC
– | binds | Clone 47 IgG1 (modified) (antibody, also called 47 G1; variant 47) heavy: not shown light: EIVLTQSPGTLSLSPGERATLSCRASSSVSYMYWYQQKPGQAPRLLIYATSNLASGIPDRFSGSGSGTDFTLTISRLEPEDFAVYYCQQWEGNPRTFGGGTKLEIKRTVAAPSVFIFPPSDEQLKSGTASVVCLLNNFYPREAKVQWKVDNALQSGNSQESVTEQDSKDSTYSLSSTLTLSKADYEKHKVYACEVTHQGLSSPVTKSFNRGEC
– | binds | Clone 17L IgG2 (antibody, also called 17L G2) heavy: QVQLVQSGAEVKKPGASVKVSCKASGFDIQDTYMHWVRQAPGQGLEWMGRIDPASGHLKYDPKFQVRVTMTRDTSTSTVYMELSSLRSEDTAVYYCARSGGLPDMWGQGTTVTVSSASTKGPSVFPLAPCSRSTSESTAALGCLVKDYFPEPVTVSWNSGALTSGVHTFPAVLQSSGLYSLSSVVTVPSSNFGTQTYTCNVDHKPSNTKVDKTVERKCCVECPPCPAPPVAGPSVFLFPPKPKDTLMISRTPEVTCVVVDVSHEDPEVQFNWYVDGVEVHNAKTKPREEQFNSTFRVVSVLTVVHQDWLNGKEYKCKVSNKGLPAPIEKTISKTKGQPREPQVYTLPPSREEMTKNQVSLTCLVKGFYPSDIAVEWESNGQPENNYKTTPPMLDSDGSFFLYSKLTVDKSRWQQGNVFSCSVMHEALHNHYTQKSLSLSPGK light: EIVLTQSPGTLSLSPGERATLSCRASSSVSYMYWYQQKPGQAPRLLIYATSNLASGIPDRFSGSGSGTDFTLTISRLEPEDFAVYYCQQWQGNPRTFGGGTKLEIKRTVAAPSVFIFPPSDEQLKSGTASVVCLLNNFYPREAKVQWKVDNALQSGNSQESVTEQDSKDSTYSLSSTLTLSKADYEKHKVYACEVTHQGLSSPVTKSFNRGEC
– | binds | Clone 47 IgG2 (antibody, also called 47 G2) heavy: QVQLVQSGAEVKKPGASVKVSCKASGFDIQDTYMHWVRQAPGQGLEWMGRIEPASGHVKYDPKFQTRVTMTRDTSTSTVYMELSSLRSEDTAVYYCARSGGLPDWWGQGTTVTVSSASTKGPSVFPLAPCSRSTSESTAALGCLVKDYFPEPVTVSWNSGALTSGVHTFPAVLQSSGLYSLSSVVTVPSSNFGTQTYTCNVDHKPSNTKVDKTVERKCCVECPPCPAPPVAGPSVFLFPPKPKDTLMISRTPEVTCVVVDVSHEDPEVQFNWYVDGVEVHNAKTKPREEQFNSTFRVVSVLTVVHQDWLNGKEYKCKVSNKGLPAPIEKTISKTKGQPREPQVYTLPPSREEMTKNQVSLTCLVKGFYPSDIAVEWESNGQPENNYKTTPPMLDSDGSFFLYSKLTVDKSRWQQGNVFSCSVMHEALHNHYTQKSLSLSPGK light: EIVLTQSPGTLSLSPGERATLSCRASSSVSYMYWYQQKPGQAPRLLIYATSNLASGIPDRFSGSGSGTDFTLTISRLEPEDFAVYYCQQWEGNPRTFGGGTKLEIKRTVAAPSVFIFPPSDEQLKSGTASVVCLLNNFYPREAKVQWKVDNALQSGNSQESVTEQDSKDSTYSLSSTLTLSKADYEKHKVYACEVTHQGLSSPVTKSFNRGEC
